Data on three molecules can be found in patent US20070237776A1 (Regeneron, published 2007).

Assay [1] deals with T1, human interleukin-18 receptor alpha (hIL-18Rα) on cells (human, UniProt Q13478 19-541).
T1 sequence: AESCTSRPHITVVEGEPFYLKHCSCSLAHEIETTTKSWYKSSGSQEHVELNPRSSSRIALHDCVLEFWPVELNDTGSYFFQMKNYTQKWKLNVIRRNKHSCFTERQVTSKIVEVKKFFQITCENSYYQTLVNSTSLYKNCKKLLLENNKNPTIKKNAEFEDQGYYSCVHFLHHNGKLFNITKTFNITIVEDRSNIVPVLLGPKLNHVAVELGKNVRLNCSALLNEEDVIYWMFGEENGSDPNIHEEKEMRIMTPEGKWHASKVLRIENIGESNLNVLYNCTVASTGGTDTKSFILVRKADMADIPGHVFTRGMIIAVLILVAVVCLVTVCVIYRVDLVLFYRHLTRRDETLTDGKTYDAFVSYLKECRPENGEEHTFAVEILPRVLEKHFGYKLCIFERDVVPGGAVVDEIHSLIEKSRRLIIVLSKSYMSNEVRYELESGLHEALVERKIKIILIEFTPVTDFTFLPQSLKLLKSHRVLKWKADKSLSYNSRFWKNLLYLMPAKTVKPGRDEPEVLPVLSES
Briefly: cell-based or functional assay.

The target of assay [2] is T2, hIL-18Rα-hFc fusion protein (human, UniProt Q13478 19-329, limits assumed).
T2 construct: also called IL-18R1-hFc; not shown: human Fc
T2 sequence: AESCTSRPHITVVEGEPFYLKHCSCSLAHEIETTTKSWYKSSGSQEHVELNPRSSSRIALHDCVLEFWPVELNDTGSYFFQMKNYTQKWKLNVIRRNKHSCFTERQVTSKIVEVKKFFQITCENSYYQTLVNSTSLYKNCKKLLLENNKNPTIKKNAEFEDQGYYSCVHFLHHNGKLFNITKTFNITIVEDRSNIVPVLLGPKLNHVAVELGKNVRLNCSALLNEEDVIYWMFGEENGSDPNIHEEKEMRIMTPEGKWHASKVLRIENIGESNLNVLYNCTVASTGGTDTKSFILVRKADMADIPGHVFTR
Briefly: SPR (BIAcore), antibody from conditioned medium captured on anti-mouse IgG, hIL-18Rα-hFc in solution. How it is done:
The KD of the antigen binding to the selected antibodies described above were determined by surface kinetics on a real-time biosensor surface plasmon resonance assay (BIAcore™). The antibody derived from hybridoma was captured on an anti-mouse IgG surface and exposed to various concentrations of hIL-18Rα-hFc fusion protein. Kinetic analysis using evaluation software was performed to obtain the association and dissociation rate constants.

In assay [3] the target is T2, hIL-18Rα-hFc fusion protein. Briefly: ELISA solution affinity: antibody premixed with serial dilutions of hIL-18Rα-hFc, free antibody caught on hIL-18Rα-hFc-coated plate. The method, then: Binding affinity of the antibodies to antigen were also measured using a immunoassay. Antibodies were characterize from hybridoma conditioned medium or as purified protein. Protein was purified after hybridoma cells were grown in low IgG medium and affinity purified using Protein G. IC₅₀ of antigen binding was determined with an ELISA-based assay. Briefly, constant amounts of antibody at different levels, either in hybridoma conditioned medium or purified, were premixed with serial dilutions of antigen protein, hIL-18Rα-hFc, ranging from 0 to 10 mg/ml, and incubated for two hours at room temperature to reach pseudo-binding equilibrium between the antibody and antigen. These solutions were then transferred to 96-well hIL-18Rα-hFc pre-coated plates (solid phase) to allow the free-antibody in the mixtures to bind to plate-coated hIL-18Rα-hFc. […] After washing off excess antibody in solution, the plate-bound antibodies were detected with an HRP-conjugated goat anti-mouse IgG polyclonal antibody reagent and developed using either colorimetric or chemiluminescent substrates. The dependency of the signals on the concentrations of antigen in solution was analyzed with a 4 parameter fit analysis using Prism™ software from Graph Pad™ and reported as IC₅₀ that render 50% reduction of antibody binding to plate-coated antigen.

The target of assay [4] is T3, monomeric receptor, hIL18Rα-hIL-18Rb-myc-myc-his (human, UniProt O95256 20-356, limits assumed).
T3 construct: Construct known only by its name; also called monomeric antigen; monomeric hIL-18Rα; not shown: myc-myc-his tag
T3 sequence: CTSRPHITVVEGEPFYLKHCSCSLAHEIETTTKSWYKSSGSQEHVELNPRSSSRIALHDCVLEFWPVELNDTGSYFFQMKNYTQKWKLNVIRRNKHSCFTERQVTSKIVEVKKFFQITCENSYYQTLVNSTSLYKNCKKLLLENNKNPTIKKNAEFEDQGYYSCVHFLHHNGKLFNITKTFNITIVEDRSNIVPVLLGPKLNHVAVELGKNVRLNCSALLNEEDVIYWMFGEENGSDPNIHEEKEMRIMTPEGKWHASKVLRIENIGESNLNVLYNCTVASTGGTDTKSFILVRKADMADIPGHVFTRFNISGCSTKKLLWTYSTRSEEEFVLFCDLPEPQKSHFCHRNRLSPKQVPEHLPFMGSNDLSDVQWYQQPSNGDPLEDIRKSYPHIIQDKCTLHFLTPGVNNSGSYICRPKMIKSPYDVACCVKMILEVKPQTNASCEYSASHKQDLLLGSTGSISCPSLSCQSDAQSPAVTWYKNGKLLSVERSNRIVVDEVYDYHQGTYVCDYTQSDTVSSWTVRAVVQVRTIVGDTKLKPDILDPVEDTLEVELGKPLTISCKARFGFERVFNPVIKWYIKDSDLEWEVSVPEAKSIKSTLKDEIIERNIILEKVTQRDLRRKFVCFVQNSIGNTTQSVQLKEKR
Briefly: SPR (BIAcore), mAb from CHO conditioned medium captured on anti-human IgG, monomeric receptor 50-12.5 nM, 1:1 model. How it is done:
(§1) Both mouse IgG1 and human IgG4 versions of the derived antibody were measured to determine KD for monomeric antigen using BIAcore™ (Table 2). Binding affinity of monomeric receptor was measured by capturing mAb from subclone hybridoma supernatant and CHO conditioned media over amine coupled anti-mouse IgG and anti-human IgG. […] Data were processed and analyzed using a 1:1 binding model and KD values were calculated.

The target of assay [5] is T3, monomeric receptor, …. Briefly: SPR (BIAcore), mAb from subclone hybridoma supernatant captured on anti-mouse IgG, monomeric receptor 50-12.5 nM, 1:1 model. The method, then: as §1

B1: VH1F9 (antibody, V domains shown)
VH: QVQLVQSGAEVKKPGASVRVSCKASGYTFTSYDINWVRQATGQGLEYMGWMNPNSGNTGYAQKFQGRVSLTRDTSISTAYMDLNSLRSEDTAVYYCTTPGDKWNYEYFQFWGQGTLVTVSS
VL: DIQMTQSPSSVSASVGDRVTITCRASQHISIWLAWYQQKPGKAPKLLILSASSLLSGVPSRFSGSGSGTDFALTVSSLQPEDFATYYCQQANSFPSFGPGTKVEIK
notes: Hybridoma-derived chimeric IgG: human variable regions, mouse constant regions
Turning to B1, in assay [1], the “KG-1 Bioassay (IC50 nM)” value was determined as 0.085 nM and the “Luciferase Bioassay (IC50 nM)” value amounted to 0.653 nM. In assay [2], this molecule yielded a Kd of 0.135 nM. It took 0.026 nM to reach half-maximal inhibition in assay [3] (IC50).

B2: VH1F9-18, human IgG4 (antibody, V domains shown)
VH: QVQLVQSGAEVKKPGASVRVSCKASGYTFTSYDINWVRQATGQGLEYMGWMNPNSGNTGYAQKFQGRVSLTRDTSISTAYMDLNSLRSEDTAVYYCTTPGDKWNYEYFQFWGQGTLVTVSS
VL: DIQMTQSPSSVSASVGDRVTITCRASQHISIWLAWYQQKPGKAPKLLILSASSLLSGVPSRFSGSGSGTDFALTVSSLQPEDFATYYCQQANSFPSFGPGTKVEIK
notes: Fully human IgG4 version from CHO conditioned medium
Regarding B2, binding in assay [4] was put at a Kd of 6 nM.

B3: VH1F9-18, mouse IgG1 (antibody, V domains shown)
VH: QVQLVQSGAEVKKPGASVRVSCKASGYTFTSYDINWVRQATGQGLEYMGWMNPNSGNTGYAQKFQGRVSLTRDTSISTAYMDLNSLRSEDTAVYYCTTPGDKWNYEYFQFWGQGTLVTVSS
VL: DIQMTQSPSSVSASVGDRVTITCRASQHISIWLAWYQQKPGKAPKLLILSASSLLSGVPSRFSGSGSGTDFALTVSSLQPEDFATYYCQQANSFPSFGPGTKVEIK
notes: Chimeric: human variable, mouse IgG1 constant; from subclone hybridoma supernatant; subclone -18 of VH1F9
In the case of B3, the equilibrium dissociation constant (Kd) in assay [5] was 6.81 nM.
